Data on three molecules can be found in publication PMC12441119.

Sequences and labels used below:
T1: HOIP (residues 854–1072), Q96EP0
T1 chain: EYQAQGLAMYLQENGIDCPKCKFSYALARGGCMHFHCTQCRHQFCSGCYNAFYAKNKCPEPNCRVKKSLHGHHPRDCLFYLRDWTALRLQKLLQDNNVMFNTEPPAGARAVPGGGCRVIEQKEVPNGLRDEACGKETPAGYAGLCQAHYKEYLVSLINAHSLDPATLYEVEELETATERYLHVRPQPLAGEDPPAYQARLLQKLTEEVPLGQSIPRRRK

B1: STK4 (residues 11–326) wild type K59R (protein)
chain: RRQLKKLDEDSLTKQPEEVFDVLEKLGEGSYGSVYKAIHKETGQIVAIRQVPVESDLQEIIKEISIMQQCDSPHVVKYYGSYFKNTDLWIVMEYCGAGSVSDIIRLRNKTLTEDEIATILQSTLKGLEYLHFMRKIHRDIKAGNILLNTEGHAKLADFGVAGQLTDTMAKRNTVIGTPFWMAPEVIQEIGYNCVADIWSLGITAIEMAEGKPPYADIHPMRAIFMIPTNPPPTFRKPELWSDNFTDFVKQCLVKSPEQRATATQLLQHPFVRSAKGVSILRDLINEAMDVKLKRQESQQREVDQDDEENSEEDEMD
B2: STK4 (residues 1–326) wild type K59R (protein)
chain: METVQLRNPPRRQLKKLDEDSLTKQPEEVFDVLEKLGEGSYGSVYKAIHKETGQIVAIRQVPVESDLQEIIKEISIMQQCDSPHVVKYYGSYFKNTDLWIVMEYCGAGSVSDIIRLRNKTLTEDEIATILQSTLKGLEYLHFMRKIHRDIKAGNILLNTEGHAKLADFGVAGQLTDTMAKRNTVIGTPFWMAPEVIQEIGYNCVADIWSLGITAIEMAEGKPPYADIHPMRAIFMIPTNPPPTFRKPELWSDNFTDFVKQCLVKSPEQRATATQLLQHPFVRSAKGVSILRDLINEAMDVKLKRQESQQREVDQDDEENSEEDEMD
B3: STK4 (residues 1–487) wild type K59R (protein)
chain: METVQLRNPPRRQLKKLDEDSLTKQPEEVFDVLEKLGEGSYGSVYKAIHKETGQIVAIRQVPVESDLQEIIKEISIMQQCDSPHVVKYYGSYFKNTDLWIVMEYCGAGSVSDIIRLRNKTLTEDEIATILQSTLKGLEYLHFMRKIHRDIKAGNILLNTEGHAKLADFGVAGQLTDTMAKRNTVIGTPFWMAPEVIQEIGYNCVADIWSLGITAIEMAEGKPPYADIHPMRAIFMIPTNPPPTFRKPELWSDNFTDFVKQCLVKSPEQRATATQLLQHPFVRSAKGVSILRDLINEAMDVKLKRQESQQREVDQDDEENSEEDEMDSGTMVRAVGDEMGTVRVASTMTDGANTMIEHDDTLPSQLGTMVINAEDEEEEGTMKRRDETMQPAKPSFLEYFEQKEKENQINSFGKSVPGPLKNSSDWKIPQDGDYEFLKSWTVEDLQKRLLALDPMMEQEIEEIRQKYQSKRQPILDAIEAKKRRQQNF

The target in this experiment is T1, HOIP (residues 854–1072), Q96EP0. Nature of the experiment: ITC. The following applies: chain shown with the change.
On to B1, for which the Kd (in general, the concentration at which binding is half-saturated) was 20.9 µM.

B2 displayed a Kd of 28.5 µM.

Molecule B3 registered a Kd of 115 µM. Compared with the last molecule, the Kd is about 4-fold higher.
